Values quoted from earlier work in patent EP4748396A1, “PHARMACEUTICAL COMPOSITION CONTAINING ANTI-NECTIN4 ANTIBODY-DRUG CONJUGATE AND ANTI-PD-1 ANTIBODY AND USE THEREOF” (priority 2023, dated 2025).

Conditions: 2019 FDA announcement

For Enfortumab Vedotin [PADCEV], the skin adverse reactions is listed as “may cause severe skin adverse reactions, including Stevens-Johnson syndrome (SJS) and toxic epidermal necrolysis (TEN)”.
